Experimental data reported in publication PMC11069190.

Columns and labels:
Assay in all cases: EMSA
[1] = molecular target: T1, Abf1 (Saccharomyces cerevisiae) (UniProt P14164); details: apparent Kd on reconstituted nucleosome; 10.7 mM HEPES-KOH pH 7.9, 4 mM Tris-Cl, 80.9 mM NaCl, 19.1 mM KCl, 5.4 mM MgCl2, 0.2 mM Mg acetate, 0.05% NP-40, 10% glycerol, 0.2 uM ZnCl2, 0.2 mM EDTA, 0.4 mM
T1 sequence: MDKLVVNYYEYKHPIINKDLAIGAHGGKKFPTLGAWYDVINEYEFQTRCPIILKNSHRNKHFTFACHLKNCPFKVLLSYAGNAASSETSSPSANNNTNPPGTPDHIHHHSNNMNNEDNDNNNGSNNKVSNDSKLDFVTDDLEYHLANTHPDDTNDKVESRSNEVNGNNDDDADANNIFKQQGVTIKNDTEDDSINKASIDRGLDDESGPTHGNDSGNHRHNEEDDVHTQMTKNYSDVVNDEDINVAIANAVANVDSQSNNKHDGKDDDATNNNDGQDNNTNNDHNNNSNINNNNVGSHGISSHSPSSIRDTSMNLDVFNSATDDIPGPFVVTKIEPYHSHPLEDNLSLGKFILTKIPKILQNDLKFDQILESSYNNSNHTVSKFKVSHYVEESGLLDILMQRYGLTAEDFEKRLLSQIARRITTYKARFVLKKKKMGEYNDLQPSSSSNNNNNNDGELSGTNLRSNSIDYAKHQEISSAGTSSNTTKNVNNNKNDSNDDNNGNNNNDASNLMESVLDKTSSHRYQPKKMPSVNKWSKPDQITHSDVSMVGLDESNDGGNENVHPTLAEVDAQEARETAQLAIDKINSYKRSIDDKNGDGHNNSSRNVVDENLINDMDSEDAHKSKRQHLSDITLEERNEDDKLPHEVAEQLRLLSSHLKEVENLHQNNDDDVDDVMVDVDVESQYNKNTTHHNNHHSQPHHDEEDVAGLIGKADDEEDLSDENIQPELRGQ

[2] = molecular target: T2, Reb1 (Saccharomyces cerevisiae) (UniProt P21538); details: apparent Kd on reconstituted nucleosome; 10.7 mM HEPES-KOH pH 7.9, 4 mM Tris-Cl, 80.9 mM NaCl, 19.1 mM KCl, 5.4 mM MgCl2, 0.2 mM Mg acetate, 0.05% NP-40, 10% glycerol, 0.2 uM ZnCl2, 0.2 mM EDTA, 0.4 mM
T2 sequence: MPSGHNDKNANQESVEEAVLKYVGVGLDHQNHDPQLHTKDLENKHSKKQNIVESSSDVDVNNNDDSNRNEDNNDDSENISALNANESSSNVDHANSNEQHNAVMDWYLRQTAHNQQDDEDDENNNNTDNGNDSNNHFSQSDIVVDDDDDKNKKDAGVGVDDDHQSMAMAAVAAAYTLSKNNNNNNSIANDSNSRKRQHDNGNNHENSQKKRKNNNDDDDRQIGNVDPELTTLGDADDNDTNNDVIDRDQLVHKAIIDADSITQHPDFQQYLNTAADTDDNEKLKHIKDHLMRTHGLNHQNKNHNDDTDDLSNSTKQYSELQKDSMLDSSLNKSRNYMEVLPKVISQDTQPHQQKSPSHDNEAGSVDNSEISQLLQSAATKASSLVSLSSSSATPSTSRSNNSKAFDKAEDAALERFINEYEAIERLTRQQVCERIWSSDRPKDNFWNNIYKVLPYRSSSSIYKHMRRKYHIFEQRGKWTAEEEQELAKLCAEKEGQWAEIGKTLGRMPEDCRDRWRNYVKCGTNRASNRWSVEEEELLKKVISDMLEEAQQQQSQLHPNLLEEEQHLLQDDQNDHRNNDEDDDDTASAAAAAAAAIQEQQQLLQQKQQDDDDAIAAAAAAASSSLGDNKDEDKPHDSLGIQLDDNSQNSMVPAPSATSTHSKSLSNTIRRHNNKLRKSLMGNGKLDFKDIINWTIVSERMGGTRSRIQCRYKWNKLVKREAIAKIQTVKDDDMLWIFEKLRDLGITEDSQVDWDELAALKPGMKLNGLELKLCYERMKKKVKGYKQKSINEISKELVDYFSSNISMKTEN

[3] = molecular target: Cbf1 (Saccharomyces cerevisiae) (UniProt P17106); details: apparent Kd on reconstituted nucleosome; 10.7 mM HEPES-KOH pH 7.9, 4 mM Tris-Cl, 80.9 mM NaCl, 19.1 mM KCl, 5.4 mM MgCl2, 0.2 mM Mg acetate, 0.05% NP-40, 10% glycerol, 0.2 uM ZnCl2, 0.2 mM EDTA, 0.4 mM
[4] = molecular target: T3, Rap1 (Saccharomyces cerevisiae) (UniProt P11938); details: 10.7 mM HEPES-KOH pH 7.9, 4 mM Tris-Cl, 80.9 mM NaCl, 19.1 mM KCl, 5.4 mM MgCl2, 0.2 mM Mg acetate, 0.05% NP-40, 10% glycerol, 0.2 uM ZnCl2, 0.2 mM EDTA, 0.4 mM
T3 sequence: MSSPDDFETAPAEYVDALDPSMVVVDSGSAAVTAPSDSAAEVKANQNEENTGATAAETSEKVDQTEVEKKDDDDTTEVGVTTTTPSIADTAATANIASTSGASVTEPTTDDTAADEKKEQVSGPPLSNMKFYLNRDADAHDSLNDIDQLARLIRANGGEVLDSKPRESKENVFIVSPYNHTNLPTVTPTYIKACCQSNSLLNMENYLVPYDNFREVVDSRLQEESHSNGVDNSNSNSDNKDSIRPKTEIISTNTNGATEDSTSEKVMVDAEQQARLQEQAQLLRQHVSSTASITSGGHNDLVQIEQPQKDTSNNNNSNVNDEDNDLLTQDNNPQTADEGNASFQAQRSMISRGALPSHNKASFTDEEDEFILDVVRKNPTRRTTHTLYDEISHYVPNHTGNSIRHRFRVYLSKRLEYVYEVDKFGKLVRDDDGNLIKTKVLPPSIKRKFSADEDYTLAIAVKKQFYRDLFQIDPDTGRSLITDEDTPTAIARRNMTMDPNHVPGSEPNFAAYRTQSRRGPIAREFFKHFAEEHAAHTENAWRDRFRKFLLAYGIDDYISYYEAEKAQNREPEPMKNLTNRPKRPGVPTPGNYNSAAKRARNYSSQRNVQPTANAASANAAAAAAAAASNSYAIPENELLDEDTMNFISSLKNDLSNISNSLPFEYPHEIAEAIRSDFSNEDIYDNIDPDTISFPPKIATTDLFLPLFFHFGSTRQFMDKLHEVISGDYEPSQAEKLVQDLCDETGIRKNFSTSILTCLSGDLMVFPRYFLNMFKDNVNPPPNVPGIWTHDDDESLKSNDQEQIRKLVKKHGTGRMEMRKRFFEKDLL

Sequence of UniProt P17106 (P17106 whole entry): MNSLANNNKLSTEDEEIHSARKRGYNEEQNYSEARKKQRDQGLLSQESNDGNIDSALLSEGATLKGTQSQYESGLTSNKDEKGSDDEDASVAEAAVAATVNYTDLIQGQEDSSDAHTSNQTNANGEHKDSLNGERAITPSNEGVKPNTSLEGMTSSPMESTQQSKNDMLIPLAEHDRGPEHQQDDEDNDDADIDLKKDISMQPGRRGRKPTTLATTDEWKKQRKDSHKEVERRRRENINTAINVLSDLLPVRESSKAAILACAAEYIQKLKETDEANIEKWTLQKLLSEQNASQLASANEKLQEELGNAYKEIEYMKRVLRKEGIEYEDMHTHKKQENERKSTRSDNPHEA

**Q.** How did the Kd [1] turn out when “GGTCGCTGTTCAATACATGCACAGGATGTATATATCTGACACGTGCCTGGAGACTAGGGAGTAATCCCCTTGGCGGTTAAAACGCGGGGGACAGCGCGTACGTGCGTTTAAGCGGTGCTAGAGCTGTCTACGACCAATTGAGCGGCCTCGGCACCGGGATTCTCCAGGGCGGCCGCTTATCGTATTGCATGATATGGTGATGACCGCGGACCTGCAGGCATGCAAGC (double strand) [20-NC-60Abf1bs nucleosome]” was run?
**A.** The Kd was 1 nM.

**Q.** “GGTCGCTGTTCAATACATGCACAGGATGTATATATCTGACACGTGCCTGGAGACTAGGGAGTAATCCCCTTGGCGGTTAAAACGCGGGGGACAGCGCGTACGTGCGTTTAAGCGGTGCTAGAGCTGTCTACGACCAATTGAGCGGCCTCGGCACCGGGATTCTCCAGGGCGGCCGCTCGGGTAAAGCATCACCATGGTGATGACCGCGGACCTGCAGGCATGCAAGC (double strand) [20-NC-60Reb1bs nucleosome]” was tested. Which Kd [2] did it give?
**A.** The Kd was 4.9 nM.

**Q.** How did the Kd [3] turn out when “GGTCGCTGTTCAATACATGCACAGGATGTATATATCTGACACGTGCCTGGAGACTAGGGAGTAATCCCCTTGGCGGTTAAAACGCGGGGGACAGCGCGTACGTGCGTTTAAGCGGTGCTAGAGCTGTCTACGACCAATTGAGCGGCCTCGGCACCGGGATTCTCCAGGGCGGCCGCTGTCACGTGGGCTAGTAATGGTGATGACCGCGGACCTGCAGGCATGCAAGC (double strand) [20-NC-60Cbf1bs nucleosome]” was run?
**A.** Its Kd is 7.8 nM.

**Q.** With “GGTCGCTGTTCAATACATGCACAGGATGTATATATCTGACACGTGCCTGGAGACTAGGGAGTAATCCCCTTGGCGGTTAAAACGCGGGGGACAGCGCGTACGTGCGTTTAAGCGGTGCTAGAGCTGTCTACGACCAATTGAGCGGCCTCGGCACCGGGATTCTCCAGGGCGGCCGCTACACCCATACATTTCCATGGTGATGACCGCGGACCTGCAGGCATGCAAGC (double strand) [20-NC-60Rap1bs nucleosome]” as the sequence, how does the Kd [4] read?
**A.** The Kd was 0.8 nM.
